We go through one molecule from patent US20220348617A1 (H LEE MOFFITT CANCER CENTER AND RESEARCH INSTITUTE, published 2022).

In one assay the target is T1, Notch 3 EGF domains 5-12 (human, UniProt Q9UM47 197-505).
T1 construct: domain: EGF domains 5-12; the other passages say only 'Notch 3'
T1 sequence (looked up): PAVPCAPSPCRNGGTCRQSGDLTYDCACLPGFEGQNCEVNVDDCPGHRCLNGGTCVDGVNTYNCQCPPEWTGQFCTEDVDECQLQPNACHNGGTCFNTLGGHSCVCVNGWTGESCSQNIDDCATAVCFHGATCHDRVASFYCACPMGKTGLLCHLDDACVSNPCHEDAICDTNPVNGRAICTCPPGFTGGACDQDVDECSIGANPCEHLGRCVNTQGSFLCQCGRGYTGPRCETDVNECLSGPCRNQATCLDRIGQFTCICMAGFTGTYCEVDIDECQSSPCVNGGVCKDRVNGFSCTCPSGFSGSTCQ
The assay can be described thus: SPR, Notch on streptavidin chip, DLL4 flowed. On the technique in general: In SPR one partner is held on a chip, and binding of the other changes the refractive index at the surface.

Another assay deals with T2, Notch1 EGF domains 6-13 (human, UniProt P46531 218-526).
T2 construct: domain: EGF domains 6-13; Immobilised on a streptavidin sensor chip; the other passages say only 'Notch 1'
The experiment in a line: SPR, Notch immobilised, DLL4 flowed. How it is done: Binding affinities between DLL4 variants and Notch receptor subtypes were determined by surface plasmon resonance (SPR) (FIG. 7). Notch1 EGF domains 6-13, Notch2, EGF domains 6-13, or Notch 3 EGF domains 5-12 were immobilized on a sensor chip and various concentrations of DLL4 ligands were injected over the surface. A co-culture assay was used to monitor the inhibition of Notch signaling by DLL4.v3 (FIG. 8). A fluorescent Notch1 reporter cell line (CHO^N1) was co-cultured with 293T cells expressing wild-type human DLL4 (293TDLL4) in 96-well plates to activate signaling. This value was normalized to 100% Notch1 activation. A reduction in Notch1 activation was observed upon the addition of increasing concentrations of DLL4.v3 (20 nM, 200 nM, 2000 nM) to the co-cultures.

B1: wildtype (WT) human DLL4 (ligand)
chain: SGVFQLQLQEFINERGVLASGRPCEPGCRTFFRVCLKHFQAVVSPGPCTFGTVSTPVLGTNSFAVRDDSSGGGRNPLQLPFNFTWPGTFSLIIEAWHAPGDDLRPEALPPDALISKIAIQGSLAVGQNWLLDEQTSTLTRLRYSYRVICSDNYYGDNCSRLCKKRNDHFGHYVCQPDGNLSCLPGWTGEYCQQPICLSGCHEQNGYCSKPAECLCRPGWQGRLCNECIPHNGCRHGTCSTPWQCTCDEGWGGLFCDQDLNYCTHHSPCKNGATCSNSGQRSYTCTCRPGYTGVDCE
notes: Soluble protein flowed over immobilised Notch in SPR; also called wild-type DLL4
On to B1, for which the binding result in the assay with Notch 3 EGF domains 5-12 and in the assay with Notch1 EGF domains 6-13 was “binds” in each case.
